Experimental findings from paper PMC5570905, “Phytochrome-interacting factors directly suppress MIR156 expression to enhance shade-avoidance syndrome in Arabidopsis” are described below.

This series addresses T1, GST-PIF5 bHLH domain (Arabidopsis thaliana, UniProt Q84LH8 259-310).
T1 sequence: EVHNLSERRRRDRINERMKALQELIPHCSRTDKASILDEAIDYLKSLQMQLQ
The series can be described thus: EMSA; Beyotime EMSA kit binding buffer (composition not stated), 20 min, room temperature, 5% native PAGE; 50x and 100x unlabeled competitor. As to conditions: protein: recombinant, tags: N-terminal GST (pGEX-4T-1), chain copies: 2, label: biotin.

B1: MIR156E probe (E01/E02) (dsDNA)
DNA 1: CATATTCGTTCCCACCACGTGTCTCCTCAGGGGCTGACCACGTGATTCCCACGCCGAAAG
DNA 2: CTTTCGGCGTGGGAATCACGTGGTCAGCCCCTGAGGAGACACGTGGTGGGAACGAATATG
With B1, the binding result (blunt) is listed as “binds”.

B2: MIR156F probe (E05/E06) (dsDNA)
DNA 1: AACAAACCCCATTACGACACGTGACAGGCTGGGCATTCTCCACATGCTTTCTTGCCGAAA
DNA 2: TTTCGGCAAGAAAGCATGTGGAGAATGCCCAGCCTGTCACGTGTCGTAATGGGGTTTGTT
Take B2: for the setting “blunt”, the binding result is on record as “binds”.

B3: MIR156F mutant probe (E07/E08) (dsDNA)
DNA 1: AACAAACCCCATTACGATGACCTACAGGCTGGGCATTCTCCACATGCTTTCTTGCCGAAA
DNA 2: TTTCGGCAAGAAAGCATGTGGAGAATGCCCAGCCTGTTGACCTTCGTAATGGGGTTTGTT
In the case of B3, the binding result (60 nt strands) was “no binding”.

B4: MIR156E mutant probe (E03/E04) (dsDNA)
DNA 1: CATATTCGTTCCCACTGACCTTCTCCTCAGGGGCTGACTGACCTATTCCCACGCCGAAAG
DNA 2: CTTTCGGCGTGGGAATAGGTCAGTCAGCCCCTGAGGAGAAGGTCAGTGGGAACGAATATG
As to B4, the binding result (blunt) is “no binding”.
